Assay results taken from US7807363B2, “Superoxide dismutase-2 expression for glaucoma diagnosis” (Alcon Research, Ltd., priority 2006, dated 2010).

System: SOD-2 mRNA in NTM-115 cells
Assay: RT-qPCR of SOD-2 mRNA in NTM-115 TM cells treated with SAA
Type: cell-based
Details: rhSAA 40 ug/ml, 24 hr, compared to untreated cells, FIG. 4
Description: SOD-2 mRNA levels in FIG. 1 were measured using real-time quantitative PCR (RT-qPCR). In the RT-qPCR protocol used in one embodiment of the present invention, total RNA was extracted from cultured TM cells or from RNAlater-preserved ocular tissues by using a commercial kit of RNAqueous-4 PCR (Ambion, Austin, Tex.) according to the manufacturer's instructions. RNA quality was assessed by agarose gel electrophoresis or with a 2100 Bioanalyer (Agilent). cDNA was synthesized using MultiScribe reverse transcriptase and random hexamers (PE Applied Biosystems, Foster City, Calif.). Real-time PCR was performed using the ABI Prism 7700 Sequence Detection System according to the manufacturer's instructions (Applied Biosystems, Foster City, Calif.). […] Relative RNA concentrations were determined by comparison to a standard curve generated by different dilutions of TM cell cDNA. […]
In this embodiment, a TM cell line is treated with SAA, which causes overexpression of SOD-2. After addition of the test compound or appropriate vehicle control, the levels of SOD-2 are measured in the test and control replicates via qPCR using the protocol given in the description accompanying FIG. 1. […]

B1: serum amyloid A (protein, UniProt P0DJI8 19-122, looked up)
Serum amyloid A-1 protein: RSFFSFLGEAFDGARDMWRAYSDMREANYIGSDKYFHARGNYDAAKRGPGGAWAAEVITDARENIQRFFGHGAEDSLADQAANEWGRSGKDPNHFRPAGLPEKY
notes: acute-phase reactant protein; recombinant human SAA used to induce SOD-2 overexpression in TM cells
With B1 the “SOD-2 mRNA levels” value was “increased levels of SOD-2 mRNA”.
